Measurements taken from paper PMC4158885 (The EMBO Journal, 2014).
Values belong to the molecule of their own block, whether it stands above or below them.

Columns and labels:
[1] = biological target: ctPan2 PID (Pan3 interaction domain) as used for surface plasmon resonance and isothermal titration calorimetry (Chaetomium thermophilum); assay: SPR; ctPan3 PKC with ctPan2 PID; who was immobilised is not shown (Supplementary Fig S7A–C)
[2] = biological target: ctPan2 PID (Pan3 interaction domain) as used for surface plasmon resonance and isothermal titration calorimetry (Chaetomium thermophilum); assay: ITC; ctPan3 PKC with ctPan2 PID; low protein concentrations, which limits the accuracy of the Kd
scPan3 zinc finger [3] = biological target: T1, scPan3 zinc finger (Saccharomyces cerevisiae, UniProt P36102 1-41); assay: NMR chemical shift perturbation; Zn2+; negligible changes; FP: 10 mM Tris pH 8.0, 50 mM NaCl, 1 mM MgCl2, 5 mM beta-mercaptoethanol, 20 nM RNA, temperature not stated; EMSA: deadenylation assay buffer (composition not in material), 0.1-3 uM complex, 40 ng RNA in 10 ul, 15 min RT; NMR: 150 uM protein, 150 uM RNA (HSQC); conditions: protein: recombinant; tags: lipoyl domain/His fusion removed by TEV
T1 chain: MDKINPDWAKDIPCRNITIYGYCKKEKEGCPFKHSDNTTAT

[4] = biological target: the molecule itself; assay: native MS; nanoESI-MS of the purified recombinant scPan2–Pan3 complex (5.5 mg/ml), buffer-exchanged into 200 mM ammonium acetate pH 8.0
[5] = biological target: T2, Saccharomyces cerevisiae Pan2 (scPan2), full length, of the recombinant scPan2–Pan3 complex (Saccharomyces cerevisiae, UniProt P53010 1-1115); assay: as above; conditions: both partners purified
T2 construct: Pan2, Saccharomyces cerevisiae
T2 sequence (looked up): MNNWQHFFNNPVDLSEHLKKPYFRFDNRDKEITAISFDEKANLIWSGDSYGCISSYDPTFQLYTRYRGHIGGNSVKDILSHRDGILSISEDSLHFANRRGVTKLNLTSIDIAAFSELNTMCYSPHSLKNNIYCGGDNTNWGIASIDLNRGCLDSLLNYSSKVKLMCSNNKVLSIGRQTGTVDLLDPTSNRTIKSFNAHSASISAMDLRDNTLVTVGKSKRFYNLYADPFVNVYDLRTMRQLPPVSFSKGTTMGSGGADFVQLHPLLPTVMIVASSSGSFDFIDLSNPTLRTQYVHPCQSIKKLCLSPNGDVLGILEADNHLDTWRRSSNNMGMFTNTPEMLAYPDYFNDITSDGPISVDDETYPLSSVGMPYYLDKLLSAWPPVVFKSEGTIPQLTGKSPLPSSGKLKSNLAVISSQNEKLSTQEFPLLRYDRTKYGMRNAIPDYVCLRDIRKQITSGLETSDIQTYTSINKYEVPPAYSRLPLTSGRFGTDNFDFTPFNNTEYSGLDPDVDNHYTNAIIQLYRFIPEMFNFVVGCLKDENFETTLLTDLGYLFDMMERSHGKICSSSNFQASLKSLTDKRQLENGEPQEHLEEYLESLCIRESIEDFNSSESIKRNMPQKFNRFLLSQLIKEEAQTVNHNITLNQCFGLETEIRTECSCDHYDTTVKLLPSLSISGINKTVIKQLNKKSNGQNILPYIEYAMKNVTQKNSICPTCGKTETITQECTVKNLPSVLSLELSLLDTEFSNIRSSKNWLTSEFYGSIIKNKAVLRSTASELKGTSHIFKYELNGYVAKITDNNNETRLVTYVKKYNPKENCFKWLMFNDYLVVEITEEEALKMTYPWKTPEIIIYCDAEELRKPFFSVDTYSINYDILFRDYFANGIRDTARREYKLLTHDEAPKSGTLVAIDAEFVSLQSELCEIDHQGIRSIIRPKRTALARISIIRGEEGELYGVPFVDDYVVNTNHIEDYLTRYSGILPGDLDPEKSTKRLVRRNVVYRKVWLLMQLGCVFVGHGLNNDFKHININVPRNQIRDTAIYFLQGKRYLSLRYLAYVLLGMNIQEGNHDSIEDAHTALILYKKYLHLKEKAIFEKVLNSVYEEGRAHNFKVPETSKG

ctPan3 PKC [6] = biological target: T3, ctPan3 PKC (Chaetomium thermophilum, UniProt G0S0Y3 205-640); assay: fluorescence polarization; 1 mM Mg2+; FP: 10 mM Tris pH 8.0, 50 mM NaCl, 1 mM MgCl2, 5 mM beta-mercaptoethanol, 20 nM RNA, temperature not stated; EMSA: deadenylation assay buffer (composition not in material), 0.1-3 uM complex, 40 ng RNA in 10 ul, 15 min RT; NMR: 150 uM protein, 150 uM RNA (HSQC); conditions: protein: recombinant; tags: GST-TEV construct (pGEX-TEV); chain copies: 2; label: 5' Cy3
T3 sequence: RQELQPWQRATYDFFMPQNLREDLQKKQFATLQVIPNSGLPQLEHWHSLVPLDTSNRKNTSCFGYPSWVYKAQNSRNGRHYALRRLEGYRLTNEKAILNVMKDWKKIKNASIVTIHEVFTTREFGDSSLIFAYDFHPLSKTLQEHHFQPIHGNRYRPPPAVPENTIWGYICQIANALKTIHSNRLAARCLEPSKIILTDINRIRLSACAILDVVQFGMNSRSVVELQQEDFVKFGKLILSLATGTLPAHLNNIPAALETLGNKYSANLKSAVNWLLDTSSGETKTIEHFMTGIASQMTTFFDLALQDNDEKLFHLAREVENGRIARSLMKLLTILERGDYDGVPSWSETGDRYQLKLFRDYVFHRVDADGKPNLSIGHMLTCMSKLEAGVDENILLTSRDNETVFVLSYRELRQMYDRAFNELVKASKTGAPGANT

ctPan2 E899A;ctPan3 PKC = ctPan2 E899A;ctPan3 PKC (Chaetomium thermophilum;Chaetomium …, UniProt G0SAK8;G0S0Y3 1-1170;205-640, E899A|); assay: as above; conditions: protein: recombinant;recombinant; tags: Strep-II, His;GST-TEV construct (pGEX-TEV); copies: 1;2; label: 5' Cy3
ctPan3 PKC [7] = biological target: T3, ctPan3 PKC; assay: fluorescence polarization; 1 mM Mg2+; possible G-quadruplex complicates interpretation; FP: 10 mM Tris pH 8.0, 50 mM NaCl, 1 mM MgCl2, 5 mM beta-mercaptoethanol, 20 nM RNA, temperature not stated; EMSA: deadenylation assay buffer (composition not in material), 0.1-3 uM complex, 40 ng RNA in 10 ul, 15 min RT; NMR: 150 uM protein, 150 uM RNA (HSQC); conditions: protein: recombinant, tags: GST-TEV construct (pGEX-TEV), chain copies: 2, label: 5' Cy3
scPan3 zinc finger [8] = biological target: T1, scPan3 zinc finger; assay: NMR titration; Zn2+; apparent Kd per residue: 62 ± 4, 93 ± 11, 100 ± 13 (peaks of Trp8, Ala9, Asn16); FP: 10 mM Tris pH 8.0, 50 mM NaCl, 1 mM MgCl2, 5 mM beta-mercaptoethanol, 20 nM RNA, temperature not stated; EMSA: deadenylation assay buffer (composition not in material), 0.1-3 uM complex, 40 ng RNA in 10 ul, 15 min RT; NMR: 150 uM protein, 150 uM RNA (HSQC); conditions: protein: recombinant; tags: lipoyl domain/His fusion removed by TEV

- Kd [1]: 10 nM
- Kd [2]: 50 nM
- dH [2]: -30 kcal/mol
- stoichiometry N (Pan2 chain per Pan3 dimer) [2]: 1
Molecule: ctPan3 pseudokinase/C-terminal domain (PKC, residues 205–640), purified from E. coli (from UniProt G0S0Y3 205-640) (domain or fragment)

Molecule: CCCCCCCCCCCCCCC (ssRNA) [C15 RNA (NMR)]
- binding result (scPan3 zinc finger [3]): no binding

- stoichiometry N [5]: 2 scPan3 per scPan2
B1: Saccharomyces cerevisiae Pan3 (scPan3), full length, of the recombinant scPan2–Pan3 complex (natural protein, UniProt P36102 1-679, looked up)
chain: MDKINPDWAKDIPCRNITIYGYCKKEKEGCPFKHSDNTTATTINDVPPPIDVGEATTPTMTSVPKFNAKVSASFTPMTVGSDSLTTVTNTTSAATNATGNIAMAATSATASTVNPMINPIVNSSLVNNNNNNSNISISIPTTASSSNYDPFNAPIFTPSSTSSIHTNANAHSFPFPSIANSGGININATDDNSNNMSMANNVPPPMQPPPIESSNLKYPRIYPPPHSLLQYHLYAPEQPSSLKSLLKPNERSADQLFIPNNIREDLTKKNLSILQVFPSSGKVIPSIVQDYFNLVPLNFNNNDFLNKTTLFKVFSNYDGKAYVLKRLPNIDKSMNPNKISKIYQIWSKINCTNLIKFRDIFQTTKFGDLSICLVFDYYPNSLSLYDYHFVNFPKFPITNNYLWIYLVQLTNVINSIHSQNLSIGNTLNWRKVLITGDPGRIKLSHCNFMDLLFNDDTDTVVSSGGSTIEGQQQLDYKYLGELLFNLSINIENSNNNTAPKEYRLEEITPQSIDDMRQIDDKFKDVLKYLISDNGDSKKSIHDLTSHFYDKMFMVLESSQTYTEYMESVLSRELENGRLFRLVNKLNCIFGRIESRIDINWSESGTKFPIILFYDYVFHQVDSNGKPIMDLTHVLRCLNKLDAGIQEKLMLVTPDELNCIIISYKELKDLIESTFRSITQ
notes: Pan3, Saccharomyces cerevisiae; Two copies stand in the scPan2–Pan3 heterotrimer by nanoESI-MS
- binding result [4]: binds

Molecule: UUUUUUUUUUUUUUU (ssRNA) [U15 RNA (NMR)]
- binding result (scPan3 zinc finger [3]): no binding

Molecule: AAAAAAAAAAAAAAA (ssRNA) [Cy3-A15 RNA]
- Kd (ctPan3 PKC [6]): 2100 ± 1400 nM

Molecule: CCCCCCCCCCCCCCC (ssRNA) [Cy3-C15 RNA]
- Kd (ctPan3 PKC [6]): 2200 ± 1700 nM

Molecule: AAAAAAAAAAAAAAAAAAAAAAAAA (ssRNA) [Cy3-A25 RNA]
- Kd (ctPan3 PKC [6]): 620 ± 60 nM
- Kd (ctPan2 E899A;ctPan3 PKC): 270 ± 20 nM

Molecule: GGGGGGGGGGGGGGG (ssRNA) [Cy3-G15 RNA]
- Kd (ctPan3 PKC [7]): 550 ± 50 nM

Molecule: UUUUUUUUUUUUUUU (ssRNA) [Cy3-U15 RNA]
- Kd (ctPan3 PKC [6]): 1600 ± 600 nM

Molecule: AAAAAAAAAAAAAAA (ssRNA) [polyA15 RNA (NMR)]
- Kd (scPan3 zinc finger [8]): ~77500 nM
